The record followed here is paper PMC10908828.

Assay [1] has as its target human full-length RAF1 (residues 1-648) with C-terminal His6 (human) (UniProt P04049). Nature of the assay: mass photometry; purified RAF1-HSP90-CDC37 complex.
Assay [2] deals with insect HSP90 from Trichoplusia ni (Trichoplusia ni (endogenous in Tni-FNL cells)). The assay can be described thus: mass photometry; purified RAF1-HSP90-CDC37 complex.

Usually stoichiometry N stands for the number of molecules, sites or subunits per partner or assembly. As to “insect HSP90 from Trichoplusia ni (natural protein)”, the stoichiometry N in assay [1] and in assay [2] was 2 each time.
